This is an account of results in publication PMC8740826 (Protein Science : A Publication of the Protein Society, 2021).

Broadly, the stoichiometry N is a count of units in the complex or per binding partner.

Read-outs that look alike come from different tables or passages of the source.

Series [1] deals with the molecule itself. The series is described as follows: SEC-SAXS. In general terms: In gel filtration, larger molecules generally elute earlier.
Series [2] deals with the molecule itself. The series is described as follows: SEC-SAXS. The source holds these as a separate data set.

B1: glucose isomerase from Streptomyces rubiginosus (enzyme)
chain: not shown
Take B1: the “stoichiometry N” value in “SEC-SAXS [1]” came out at 4.

B2: β-amylase from sweet potato (enzyme)
chain: APIPGVMPIGNYVSLYVMLPLGVVNADNVFPDKEKVEDELKQVKAGGCDGVMVDVWWGIIEAKGPKQYDWSAYRELFQLVKKCGLKIQAIMSFHQCGGNVGDAVFIPIPQWILQIGDKNPDIFYTNRAGNRNQEYLSLGVDNQRLFQGRTALEMYRDFMESFRDNMADFLKAGDIVDIEVGCGAAGELRYPSYPETQGWVFPGIGEFQCYDKYMVADWKEAVKQAGNADWEMPGKGAGTYNDTPDKTEFFRPNGTYKTDMGKFFLTWYSNKLIIHGDQVLEEANKVFVGLRVNIAAKVSGIHWWYNHVSHAAELTAGFYNVAGRDGYRPIARMLARHHATLNFTCLEMRDSEQPAEAKSAPQELVQQVLSSGWKEYIDVAGENALPRYDATAYNQMLLNVRPNGVNLNGPPKLKMSGLTYLRLSDDLLQTDNFELFKKFVKKMHADLDPSPNAISPAVLERSNSAITIDELMEATKGSRPFPWYDVTDMPVDGSNPFD
On to B2, for which the “stoichiometry N” value in “SEC-SAXS [2]” worked out at 4.
